The record followed here is paper PMC6414199, “Bim escapes displacement by BH3-mimetic anti-cancer drugs by double-bolt locking both Bcl-XL and Bcl-2” (eLife, 2019).

Where a chain is given by its changes, count along the chain named. Numbers in names are those of the source. A value given as a limit tells only on which side of the number the result lay.

Assay [1] addresses Bcl-XL single-cysteine mutant 152C, Alexa647-labelled, Q07817-1. The assay can be described thus: FRET with purified proteins. The following applies: chain shown with the change, highest ABT-263 point, x position est. about 3000 nM, read off a plot.
Assay [2] concerns the target mCerulean3-Bcl-2 (human), P10415. The assay can be described thus: FRET or BRET; FLIM-FRET in live MCF-7 cells: mCer3-Bcl-XL or mCer3-Bcl-2 stably expressed (donor), Venus-BH3 protein transiently expressed (acceptor); binding curves of FLIM-FRET efficiency against the Venus:mCer3 intensity ratio, 25 C; untreated, DMSO, 20 uM ABT-263 (18-24 h) or 1.25-20 uM A-1155463, A-1331852, ABT-263; R values interpolated at ratio 0.5 (Bcl-XL) or 0.25 (Bcl-2), ^VBad4E signal subtracted. The following applies: remark: other sources report otherwise.

Assay [3] addresses mCerulean3-Bcl-XL (human), Q07817. Described as above. Particulars: remark: other sources report otherwise.
[4] abbreviates: in solution, without liposomes, parent: est. 68.
The mark [5] stands for this setting: with liposomes, parent: est. 99.

mCerulean3-Bcl-XL (human), Q07817, sequence (Q07817 whole entry): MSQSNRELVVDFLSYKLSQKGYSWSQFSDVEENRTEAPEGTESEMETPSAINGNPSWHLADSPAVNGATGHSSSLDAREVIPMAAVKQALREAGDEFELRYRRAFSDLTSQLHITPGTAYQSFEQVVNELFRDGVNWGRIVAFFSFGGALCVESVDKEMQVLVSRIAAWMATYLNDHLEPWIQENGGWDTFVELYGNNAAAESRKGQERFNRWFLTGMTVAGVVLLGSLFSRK
Bcl-XL single-cysteine mutant 152C, Alexa647-labelled, Q07817-1, sequence (Q07817 whole entry, stated change not applied): as the sequence (Q07817 whole entry) above
mCerulean3-Bcl-2 (human), P10415, sequence (P10415 whole entry): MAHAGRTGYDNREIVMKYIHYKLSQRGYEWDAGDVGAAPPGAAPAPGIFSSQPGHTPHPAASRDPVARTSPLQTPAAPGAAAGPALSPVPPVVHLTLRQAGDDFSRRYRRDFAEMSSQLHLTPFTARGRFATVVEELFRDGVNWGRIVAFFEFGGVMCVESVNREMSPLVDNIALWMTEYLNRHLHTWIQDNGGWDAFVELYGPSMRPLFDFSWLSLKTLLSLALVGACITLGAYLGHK

B1: BimL single-cysteine mutant 41C, Alexa568-labelled I188E (protein)
chain: MAKQPSDVSSECDREGGQLQPAERPPQLRPGAPTSLQTEPCDRSPAPMSCDKSTQTPSPPCQAFNHYLSAMASIRQSQEEPEDLRPEIRIAQELRRIGDEFNETYTRRVFANDYREAEDHPQMVILQLLRFEFRLVWRRH
For the molecule B1, the response (% BH3 protein bound) was 18 in assay [1] (setting [4]) and 22 in assay [1] (setting [5]).

B2: BimL single-cysteine mutant 41C, Alexa568-labelled I181E (protein)
chain: B1 chain with I125E, E132I
For B2, the values for the response (% BH3 protein bound) in assay [1] (setting [4]) and in assay [1] (setting [5]) were 14 and 24, respectively.

B3: Venus-Bad, Q92934 1-168 (natural protein)
chain: MFQIPEFEPSEQEDSSSAERGLGPSPAGDGPSGSGKHHRQAPGLLWDASHQQEQPTSSSHHGGAGAVEIRSRHSSYPAGTEDDEGMGEEPSPFRGRSRSAPPNLWAAQRYGRELRRMSDEFVDSFKKGLPRPKSAGTATQMRQSSSWTRVFQSWWDRNLGRGSSAPSQ
Regarding B3, the R (ABT-263), % of FRET signal left with 20 uM ABT-263 in assay [2] was 18.6%. For the same molecule, in assay [3], the IC50 of A-1155463 for disrupting the pair was less than 1250 nM; the IC50 of A-1331852 for disrupting the pair was less than 1250 nM; the IC50 of ABT-263 for disrupting the pair is greater than 10000 nM; the R (ABT-263), % of FRET signal left with 20 uM ABT-263 was determined as 46.4%. Besides, in assay [3], the R with A-1155463, % of FRET signal left is 45% and the R with A-1331852, % of FRET signal left is 20%.
